Test results from patent US20200297842A1 (published 2020).

B1: SIRP19 (antibody, human IgG4 S228P, kappa, V domains shown)
VH: EVQLVQSGAEVKKPGESLKISCKGSGYSFTDYFLNWVRQMPGKGLEWMGRINPYNGDSFINQNFRDQVTISADKSISTAYLQWSSLKASDTAMYYCARGGYDGYFIAYFDYWGAGTTVTVSS
VL: DIQMTQSPSSLSASVGDRVTITCKASQDINSHLSWYQQKPGKAPKLLIYRANRLATGVPSRFSGSGSGTDFTFTISSLQPEDIATYYCQQYDEFPYTFGGGTKLEIKR
B2: SIRP8 (antibody, V domains shown)
VH: EVQLQESGGGLVKPGGSLKLSCAASGFTLSTYTMSWVRQTPEKRLEWVAIITSGDTYTYYPDSVKGRFTISRDNAKNTLYLQMSSLKSEDTGMYYCTRDRPLFHWGQGTTLTVST
VL: QIVLTQSPAIMSASPGEKVTMTCSASSSVSYMYWYQQKPGSSPRLLIYDTSNLASGVPVRFSGSGSGTSYSLTISRMEAEDAATYYCQQWSSFPWTFGGGTKLEIK
B3: SIRP7 (antibody, V domains shown)
VH: EVQLQQSGPELVKPGASVKMSCRASGYTFSTYVMHWIKHRPGQGLEWIGYINPNNDGPNYNEKFKGKATLTSDISSSTAYMELSSLTSEDSAVYFCSRWDSYNSAAGFAYWGHGTLVTVSA
VL: EIVLTQSPTTMAASPGEKITIICSASSSISSNFLHWYQQKPGFSPRFLIYRTSILASGVPTRFSGSGSGTSYSLTIDTMEAEDVATYYCQQGSGLPLTFGSGTKLEIK
B4: SIRP3 (antibody, mouse IgG1, kappa, V domains shown)
VH: EVQLQQSGPEVVKPGASVKMSCKASGYTFTSYVMHWVKQKPGQGLEWIGYINPYNDGPKYNEKFKGKATLTSDKSSSTAYMELSSLTSEDSAVYFCARWDYFNSASGFAFWGQGTLVTVSA
VL: EIVLTQSPTTMAASPGEKITIICSASSIIGSDFLHWYQQRPGFSPKFLIYRTSILASGVPTRFTGSGSGTSYSLTIGTMEAEDVATYYCQQGSGLPLTFGSGTKLEMKR
notes: Hybridoma-derived mouse mAb
B5: SIRP5 (antibody, V domains shown)
VH: QVQLQQSAAELARPGASVKMSCKASGYTFTSYTMHWVKQRPGQGLEWIGYINPTIGYTEYNQKFKDKTTLTADKSSSTAYMQLSSLTSEDSAVYYCVRLVITSVLGRAMDYWGQGTSVTVSS
VL: QIVLTQSPALMSASPGEKVTMTCSASSSVSYMYWFQQKPRSSPKPWIYLTSNLASGVPARFSGSGSGTSYSLTISSMEAEDAATYYCQQWSGNPFTFGSGTKLEIK
B6: SIRP2 (antibody, mouse IgG1, kappa, V domains shown)
VH: EVKLVESGGGLVQPGGSLKLSCAASGFSFSGCTMSWIRQTPERRLEWVAYISNGGDITYYPDTVKGRFTISRDNAKNSLYLQMSSLKSEDTAMYYCARLDGYYYAMDFWGQGTSVTVSS
VL: DILLTQSPAILSVSPGERVSFSCRASQSIGTSIHWYQQRTNGSPRLLIKYGSESISGIPSRFSGSGSGTDFTLSINSVESEDIADYYCQQSNTWPLTFGDGTKLELKR
notes: Hybridoma-derived mouse mAb
B7: OSE-18D5 (antibody, from another filing, V domains shown)
VH: QVQLQQPGAELVRPGSSVKLSCKASGYTFTSYWVHWVKQRPIQGLEWIGNIDPSDSDTHYNQKFKDKASLTVDKSSSTAYMQLSSLTFEDSAVYYCVRGGTGTMAWFAYWGQGTLVTVSA
VL: DVVMTQTPLSLPVSLGDQASISCRSSQSLVHSYGNTYLYWYLQKPGQSPKLLIYRVSNRFSGVPDRFSGSGSGTDFTLKISRVEAEDLGVYFCFQGTHVPYTFGSGTKLEIK

Molecular target: T1, Fc tagged human SIRPγ (ACRO # SIG-H5253) (human, UniProt Q9P1W8 29-360)
T1 construct: Bought protein; it includes the transmembrane and cytoplasmic part, which a soluble Fc fusion would not carry; also called Fc tagged human SIRP gamma; recombinant human SIRP gamma; not shown: Fc tag
T1 sequence (Q9P1W8 29-360 limits assumed): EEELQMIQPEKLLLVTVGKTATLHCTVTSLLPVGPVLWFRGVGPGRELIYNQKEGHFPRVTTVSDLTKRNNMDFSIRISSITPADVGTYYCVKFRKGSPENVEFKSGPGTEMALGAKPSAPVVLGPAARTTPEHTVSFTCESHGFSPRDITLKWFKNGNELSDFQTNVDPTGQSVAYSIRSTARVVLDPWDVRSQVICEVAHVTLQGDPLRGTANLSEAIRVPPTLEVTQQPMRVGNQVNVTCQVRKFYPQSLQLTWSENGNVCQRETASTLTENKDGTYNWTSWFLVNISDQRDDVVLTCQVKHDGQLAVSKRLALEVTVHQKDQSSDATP
Assay: ELISA, plate-coated Fc tagged human SIRPγ
Description: (§1) Fc tagged human SIRPγ (ACRO # SIG-H5253) is adsorbed to high-binding microtiter plates at a concentration of 1 μg/ml in phosphate buffered saline (PBS) overnight at 4° C. The coating solution is removed, the wells are washed and then blocked with 75% casein in PBS containing 0.5% Tween 20 (PBST) for 60 minutes at room temperature while shaking. Blocking solution is removed, the wells are washed and incubated for 60 minutes at room temperature while shaking with anti-SIRP mAbs diluted in PBST at a starting concentration of 30 μg/ml and reducing the concentration in 3-fold serial dilutions. Wells are washed three times with PBST and incubated for 60 minutes at room temperature while shaking with an HRP labeled donkey anti-mouse or anti-human secondary antibody (Jackson ImmonResearch Laboratories) diluted 1:10,000 in PBST. The wells are washed and then incubated with peroxidase substrate and the absorbance at 450 nm determined. The apparent affinities were calculated using a non-linear fit model (GraphPad Prism).

binding result | Binder
no binding (tested: 30 µg/ml) | B1
no binding (tested: 30 µg/ml) | B2

Molecular target: T2, Fc tagged human SIRPα (ACRO # SIG-H5251, genotype variant 1) (human, UniProt P78324 31-370, limits assumed)
T2 construct: Bought protein; also called Fc tagged human SIRP alpha; recombinant human SIRPα; not shown: Fc tag
T2 sequence (P78324 31-370 limits assumed, change not shown, form in doubt): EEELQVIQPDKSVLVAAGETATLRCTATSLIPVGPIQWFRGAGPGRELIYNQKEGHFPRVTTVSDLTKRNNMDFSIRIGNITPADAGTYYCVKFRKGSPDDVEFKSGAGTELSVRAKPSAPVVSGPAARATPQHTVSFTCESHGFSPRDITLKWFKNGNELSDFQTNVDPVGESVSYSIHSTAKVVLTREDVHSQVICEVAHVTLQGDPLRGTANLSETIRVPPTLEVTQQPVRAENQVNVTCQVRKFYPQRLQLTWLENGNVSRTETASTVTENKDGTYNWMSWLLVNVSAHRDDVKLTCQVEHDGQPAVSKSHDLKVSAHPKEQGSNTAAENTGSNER
Assay: ELISA, plate-coated Fc tagged human SIRPα; apparent Kd
Description: The binding of anti-SIRP monoclonal antibodies (mAbs) of the present disclosure to SIRP alpha (SIRPα) was determined by solid phase ELISA using an Fc tagged human SIRP alpha. Binding by soluble anti-SIRP antibodies was measured in vitro.
Fc tagged human SIRPα (ACRO # SIG-H5251, genotype variant 1) is adsorbed to high-binding microtiter plates at a concentration of 1 μg/ml diluted in phosphate buffered saline (PBS) overnight at 4° C. The coating solution is removed, the wells are washed and then blocked with 75% casein in PBS containing 0.5% Tween 20 (PBST) for 60 minutes at room temperature while shaking. Blocking solution is removed, the wells are washed and incubated for 60 minutes at room temperature while shaking with either murine or human anti-SIRP mAbs diluted in PBST at a starting concentration of 30 μg/ml and reducing the concentration in 3-fold serial dilutions. Wells are washed three times with PBST and incubated for 60 minutes at room temperature while shaking with an HRP-labeled donkey anti-mouse or anti-human secondary antibody (Jackson ImmunoResearch Laboratories) diluted 1:10,000 in PBST. The wells are washed and then incubated with peroxidase substrate and the absorbance at 450 nm measured. The apparent affinities were calculated using a non-linear fit model (GraphPad Prism).

Kd [nM] | Binder
0.197 | B3
0.289 | B4
0.065 | B5
> 19 | B1
0.182 | B6
0.057 | B2

Molecular target: T1, Fc tagged human SIRPγ (ACRO # SIG-H5253)
Assay: ELISA, plate-coated Fc tagged human SIRPγ; apparent Kd
Description: The binding of anti-SIRP antibodies of the present disclosure to SIRP gamma (SIRPγ) was determined by ELISA using an Fc tagged human SIRPγ. Binding by soluble anti-SIRP antibodies was measured in vitro.
as §1

Kd [nM] | Binder
0.099 | B3
0.17 | B4
0.126 | B5
0.734 | B6

Molecular target: T3, human SIRPγ expressed on cells (human, UniProt Q9P1W8 29-387)
T3 construct: Endogenous SIRPγ on Jurkat T-ALL cells and on human CD3+ T cells; also called SIRPγ expressing Jurkat cells; Human T Cells Expressing SIRPγ
T3 sequence (Q9P1W8 29-387): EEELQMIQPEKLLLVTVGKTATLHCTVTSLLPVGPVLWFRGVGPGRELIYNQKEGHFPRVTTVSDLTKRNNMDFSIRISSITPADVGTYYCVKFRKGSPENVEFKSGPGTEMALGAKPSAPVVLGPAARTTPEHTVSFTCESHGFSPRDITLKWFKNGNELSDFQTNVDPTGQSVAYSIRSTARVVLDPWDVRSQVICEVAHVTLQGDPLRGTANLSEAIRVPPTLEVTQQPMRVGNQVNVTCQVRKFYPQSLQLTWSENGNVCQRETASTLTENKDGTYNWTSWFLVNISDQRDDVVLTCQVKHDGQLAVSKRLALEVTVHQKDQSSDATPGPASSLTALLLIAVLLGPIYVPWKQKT
Assay: flow cytometry on naive human CD3 T cells expressing SIRPγ
Description: Human CD3 T cells, isolated from peripheral blood mononuclear cells (Astarte Biologics) were incubated in 96-well V-bottom plates at 2.5 \ 10⁵ cells/well for 1 h at 37° C., 5% CO₂ with serial dilutions of SIRP mAbs in binding buffer containing 1 mM EDTA (Sigma Aldrich), 1% FBS (Biowest) in PBS (Corning). The cells were then washed and stained for 45 min under the same conditions with donkey anti-mouse IgG fluorescein isothiocyanate (FITC)-linked secondary antibody (Jackson ImmunoResearch Laboratories). The cells were subsequently stained with anti-CD3 conjugated to 3-carboxy-6,8-difluoro-7-hydroxycoumarin (Pacific Blue) fluorophore (BioLegend) for 30 min on ice, washed and analyzed by flow cytometry (Attune, Life Technologies). Binding was assessed as the median FITC fluorescence intensity of CD3⁺ cells, subtracted from CD3⁺ cells stained with the secondary antibody only. All SIRP antibodies were generated in-house except for LSB2.20 (BioLegend). For activated T cells, prior to the binding assay CD3 T cells were activated for 72 h in a 96-well flat-bottom plate coated with 10 μg/ml anti-CD3 (clone UCHT1; BioLegend), at 1×10⁵ cells/well in the presence of 0.5 μg/ml anti-CD28 (clone CD28.2; BioLegend).

Kd [nM] | Binder
0.0839 | B3
0.0807 | B4
8.41 | B7

Molecular target: T4, human SIRPα expressed on cells (human, UniProt P78324 31-504)
T4 construct: whole, on cells; Endogenous SIRPα of THP-1 cells and of donor-derived macrophages and dendritic cells; also called SIRPα expressing THP-1 cells; cell-expressed SIRPα on dendritic cells and/or macrophages
T4 sequence (P78324 31-504): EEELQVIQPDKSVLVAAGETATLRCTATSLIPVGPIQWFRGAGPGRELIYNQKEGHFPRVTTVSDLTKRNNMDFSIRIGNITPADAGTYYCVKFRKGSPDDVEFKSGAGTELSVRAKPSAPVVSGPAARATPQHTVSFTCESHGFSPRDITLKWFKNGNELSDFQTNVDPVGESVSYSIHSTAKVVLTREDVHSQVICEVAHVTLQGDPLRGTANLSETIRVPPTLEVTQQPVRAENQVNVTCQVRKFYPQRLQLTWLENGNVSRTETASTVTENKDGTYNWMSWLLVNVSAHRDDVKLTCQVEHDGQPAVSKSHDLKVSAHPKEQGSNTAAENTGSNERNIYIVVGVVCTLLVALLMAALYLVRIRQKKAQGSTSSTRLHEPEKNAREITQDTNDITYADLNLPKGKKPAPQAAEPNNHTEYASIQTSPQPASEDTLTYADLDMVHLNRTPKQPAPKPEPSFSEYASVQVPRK
Assay: flow cytometry on human monocyte-derived macrophages; apparent Kd
Description: (§2) Human CD14⁺ monocytes, isolated from peripheral blood mononuclear cells (Astarte Biologics) were differentiated in vitro for seven days into macrophages or dendritic cells. For macrophage differentiation, monocytes were incubated in AIM-V media (Life Technologies) supplemented with 50 ng/ml M-CSF (Biolegend) for seven days. For dendritic cell differentiation, monocytes were incubated in AIM-V media (Life Technologies) in the presence of 10% human AB serum (Valley Biomedical), 200 ng/ml GM-CSF (Biolegend) and 50 ng/ml IL-4 (Biolegend). The cells were incubated for 1 h at 37° C., 5% CO₂ with serial dilutions of SIRP mAbs in binding buffer containing 1 mM EDTA (Sigma Aldrich) and 1% FBS (Biowest) in PBS (Corning). The cells were then washed and stained for 45 min under the same conditions with donkey anti-mouse IgG fluorescein isothiocyanate (FITC)-linked secondary antibody (Jackson ImmunoResearch Laboratories). The cells were subsequently stained with anti-CD14 or anti-CD11c conjugated to Alexa Fluor 647 fluorophore (Life Technologies and Biolegend, respectively) for 30 min on ice, washed and analyzed by flow cytometry (Attune, Life Technologies). Binding was assessed as the median FITC fluorescence intensity of CD14⁺ or CD11c⁺ cells, subtracted from cells stained with the secondary antibody only.

Kd [nM] | Binder
0.0373 | B7

Molecular target: T4, human SIRPα expressed on cells
Assay: flow cytometry on human monocyte-derived dendritic cells; apparent Kd
Description: as §2

Kd [nM] | Binder
0.00347 | B4
0.0412 | B7
0.77 | B5

Molecular target: HIS tagged human SIRPα (ACRO # SIG-H5225) (human) (UniProt P78324)
Sequence (P78324 31-370): as the sequence (P78324 31-370 limits assumed, change not shown, form in doubt) above
Assay: blocking ELISA: mAb on plate-coated HIS tagged human SIRPα, then Fc tagged human CD47

IC50 [nM] | Binder
1.1 | B3
2.7 | B4
3 | B6

Molecular target: T1, Fc tagged human SIRPγ (ACRO # SIG-H5253)
Assay: blocking ELISA: mAb with human SIRPγ (ACRO # SIG-H5253) on plate-coated HIS tagged human CD47
Description: HIS tagged human CD47 (ACRO # CD7-H5227) is adsorbed to high-binding microtiter plates at a concentration of 2 μg/ml diluted in PBS overnight at 4° C. The coating solution is removed, the wells are washed and then blocked with 75% casein in PBS containing 0.5% Tween 20 (PBST) for 60 minutes at room temperature while shaking. Blocking solution is removed, the wells are washed and incubated for 60 minutes at room temperature while shaking with anti-SIRP mAbs diluted in PBST at a starting concentration of 30 μg/ml and reducing the concentration in 3 fold serial dilutions and 0.5 μg/ml of human SIRPγ (ACRO # SIG-H5253). Wells are washed three times with PBST and incubated for 60 minutes at room temperature while shaking with an HRP labeled donkey anti-mouse or anti-human secondary antibody (Jackson ImmunoResearch Laboratories) diluted 1:20,000 in PBST. The wells are washed and then incubated with peroxidase substrate and the absorbance at 450 nm determined. The IC₅₀ was calculated using a non-linear fit model (GraphPad Prism).

IC50 [nM] | Binder
0.63 | B3
0.96 | B4
0.163 | B5
3.5 | B6
